Assay [1] has as its target T1, Terbium (Tb) labeled-SNAP tagged ROBO2 expressed on HEK293 cells (Homo sapiens (Human), UniProt Q9HCK4 22-1378, terbium label on the SNAP tag).
T1 construct: also called Tb-labeled ROBO2 cells; ROBO2 expressing cells; not shown: SNAP tag
T1 sequence: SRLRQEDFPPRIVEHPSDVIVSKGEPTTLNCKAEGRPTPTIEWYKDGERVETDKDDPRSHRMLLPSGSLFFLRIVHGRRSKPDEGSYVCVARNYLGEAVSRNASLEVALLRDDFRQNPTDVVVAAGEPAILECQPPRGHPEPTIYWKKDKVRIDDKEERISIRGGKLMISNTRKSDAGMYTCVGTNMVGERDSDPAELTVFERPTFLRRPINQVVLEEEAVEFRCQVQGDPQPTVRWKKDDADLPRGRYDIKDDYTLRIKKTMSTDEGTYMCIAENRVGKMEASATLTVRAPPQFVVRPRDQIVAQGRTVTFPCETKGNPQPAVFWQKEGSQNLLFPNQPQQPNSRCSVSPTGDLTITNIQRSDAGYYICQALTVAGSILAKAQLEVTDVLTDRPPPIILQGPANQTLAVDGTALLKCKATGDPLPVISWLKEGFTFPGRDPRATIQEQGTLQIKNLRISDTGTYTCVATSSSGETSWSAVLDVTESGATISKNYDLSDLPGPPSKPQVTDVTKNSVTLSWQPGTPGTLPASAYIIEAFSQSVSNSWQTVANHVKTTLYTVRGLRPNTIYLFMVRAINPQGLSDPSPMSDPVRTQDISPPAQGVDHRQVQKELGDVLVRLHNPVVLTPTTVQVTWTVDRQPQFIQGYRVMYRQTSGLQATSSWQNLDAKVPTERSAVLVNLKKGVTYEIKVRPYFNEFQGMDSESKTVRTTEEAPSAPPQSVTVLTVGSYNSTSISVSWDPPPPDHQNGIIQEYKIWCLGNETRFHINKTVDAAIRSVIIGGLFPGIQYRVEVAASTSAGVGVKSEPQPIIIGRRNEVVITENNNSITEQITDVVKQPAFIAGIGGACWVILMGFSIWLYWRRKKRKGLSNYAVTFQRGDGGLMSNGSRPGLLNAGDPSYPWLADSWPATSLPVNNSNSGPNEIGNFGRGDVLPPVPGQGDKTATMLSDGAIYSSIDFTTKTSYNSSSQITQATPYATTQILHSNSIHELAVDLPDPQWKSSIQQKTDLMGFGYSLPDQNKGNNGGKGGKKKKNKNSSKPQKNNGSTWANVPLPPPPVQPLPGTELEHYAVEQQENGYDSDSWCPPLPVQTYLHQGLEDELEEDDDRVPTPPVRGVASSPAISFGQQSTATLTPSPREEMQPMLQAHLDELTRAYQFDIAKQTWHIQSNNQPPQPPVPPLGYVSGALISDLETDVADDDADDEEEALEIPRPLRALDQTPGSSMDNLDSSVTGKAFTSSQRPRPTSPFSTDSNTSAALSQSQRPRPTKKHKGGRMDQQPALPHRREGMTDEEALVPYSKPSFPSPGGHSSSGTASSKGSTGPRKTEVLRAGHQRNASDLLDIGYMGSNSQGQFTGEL
Briefly: HTRF, 5 nM d2-SLIT2-N on Tb-SNAP-ROBO2 HEK293 cells, 1 nM antibody. A digest of the protocol: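 Tb-SNAP-ROBO2 HEK293 cells incubated 1 hour with 5 nM d2-SLIT2-N, with 1 nM anti-ROBO2 antibody or none (maximal signal); cells alone gave minimum. HTRF read at 665/620 nm; IC50 series used 11-point, 5-fold dilutions from 1500 nM.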

Assay [2] deals with T2, Human ROBO2 overexpressed on HEK293 cells (human, UniProt Q9HCK4 22-1378).
T2 construct: also called ROBO2 cells; native ROBO2
T2 sequence: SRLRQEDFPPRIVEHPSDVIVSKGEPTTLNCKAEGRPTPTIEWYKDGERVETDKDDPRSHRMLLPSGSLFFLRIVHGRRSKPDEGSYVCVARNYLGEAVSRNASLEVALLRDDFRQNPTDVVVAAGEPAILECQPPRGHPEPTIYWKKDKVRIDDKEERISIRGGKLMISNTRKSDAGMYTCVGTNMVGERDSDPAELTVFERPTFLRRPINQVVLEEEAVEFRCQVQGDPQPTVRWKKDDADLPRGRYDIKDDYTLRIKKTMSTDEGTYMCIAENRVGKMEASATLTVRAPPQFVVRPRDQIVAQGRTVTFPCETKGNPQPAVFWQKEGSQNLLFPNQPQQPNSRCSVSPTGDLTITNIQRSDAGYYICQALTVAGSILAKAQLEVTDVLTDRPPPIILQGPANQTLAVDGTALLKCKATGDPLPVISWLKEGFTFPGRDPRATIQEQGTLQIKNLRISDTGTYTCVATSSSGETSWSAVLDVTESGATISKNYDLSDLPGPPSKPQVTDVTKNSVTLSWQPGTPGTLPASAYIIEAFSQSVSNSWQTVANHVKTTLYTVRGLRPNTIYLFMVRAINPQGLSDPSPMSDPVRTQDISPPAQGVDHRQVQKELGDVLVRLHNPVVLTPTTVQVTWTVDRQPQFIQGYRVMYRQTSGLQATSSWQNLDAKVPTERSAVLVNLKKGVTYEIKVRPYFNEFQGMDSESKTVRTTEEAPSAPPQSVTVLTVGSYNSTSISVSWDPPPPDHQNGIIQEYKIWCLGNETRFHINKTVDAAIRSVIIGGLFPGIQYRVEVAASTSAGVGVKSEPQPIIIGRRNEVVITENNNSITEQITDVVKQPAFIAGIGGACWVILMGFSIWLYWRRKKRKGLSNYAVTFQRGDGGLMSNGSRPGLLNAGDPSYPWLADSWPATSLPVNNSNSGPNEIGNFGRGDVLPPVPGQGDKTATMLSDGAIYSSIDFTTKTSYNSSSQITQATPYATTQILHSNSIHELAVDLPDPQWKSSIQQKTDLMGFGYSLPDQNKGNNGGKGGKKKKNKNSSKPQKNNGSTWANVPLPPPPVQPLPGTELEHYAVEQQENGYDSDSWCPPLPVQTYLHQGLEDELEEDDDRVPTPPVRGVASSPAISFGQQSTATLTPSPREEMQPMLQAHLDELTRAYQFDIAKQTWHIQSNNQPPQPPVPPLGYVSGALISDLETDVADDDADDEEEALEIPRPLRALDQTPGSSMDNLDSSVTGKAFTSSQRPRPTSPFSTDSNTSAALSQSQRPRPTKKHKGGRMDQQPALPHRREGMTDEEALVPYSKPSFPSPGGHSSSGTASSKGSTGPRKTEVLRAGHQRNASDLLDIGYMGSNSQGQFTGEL
Briefly: flow cytometry on HEK293 cells overexpressing human ROBO2; N.B. = No binding to ROBO2. The protocol: The parental 93H2 antibody was highly ROBO2 specific, therefore affinity matured antibodies with single point neutralizing activity were screened by flow cytometry to ensure ROBO2 selectivity had been maintained. […] Binding of the antibodies was detected using a secondary fluorochrome conjugated anti-human IgG F(ab′)₂ antibody and samples were analyzed on a Fortessa cytometer (BD Biosciences). The fold ROBO2 selectivity was calculated as the geometric mean fluorescence intensity (Geo MFI) with ROBO2 cells/Geo MFI with ROBO1 cells. A fold change higher than 3 was considered to be ROBO2 specific (Table 2, Fold Selectivity). Some affinity matured clones had increased ROBO1 reactivity, for example Abcs 55, CTI-R2-10 and CTIR2-13.
Table 2 is a summary of assays used to screen antibodies against ROBO1 and/or ROBO2 to identify an antibody that specifically recognized ROBO2 but not ROBO1 with high affinity. […] Full dose curves were performed in the same assay for select antibodies. Recognition of native, surface expressed protein and ROBO2 selectivity was evaluated by flow cytometry. […] Anything with a value of greater than 3 was deemed to be selective for ROBO2. Outcomes of the various screening assays conducted for each antibody are highlighted in the final column.
On the technique in general: A flow cytometer gives signals particle by particle.

A further assay has as its target T3, Human ROBO2 Ig1-Ig2-His (human, UniProt Q9HCK4 31-220).
T3 construct: the His tag is named only in the SPR paragraphs; the Octet and ELISA paragraphs print 'ROBO2 Ig1-Ig2' without a tag; also called ROBO2 Ig1-2; Human ROBO2 Ig 1,2
T3 sequence: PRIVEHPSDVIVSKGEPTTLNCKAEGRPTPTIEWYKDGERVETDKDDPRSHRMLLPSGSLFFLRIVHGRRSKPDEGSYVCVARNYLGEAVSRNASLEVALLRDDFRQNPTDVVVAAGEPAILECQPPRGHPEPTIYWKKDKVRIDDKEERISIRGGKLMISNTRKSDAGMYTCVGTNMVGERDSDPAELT
Description: Octet (BLI), relative Kd. (In general: In BLI a coated tip is dipped into the sample, and binding shifts an interference pattern.)

Assay [3] concerns the target T1, Terbium (Tb) labeled-SNAP tagged ROBO2 …. Description: HTRF competition, competitor d2-SLIT2-N, ROBO2 HEK293 cells. The procedure, abridged: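 HEK293 cells expressing Tb-labeled SNAP-ROBO2 were incubated 1 hour with 5 nM d2-SLIT2-N plus antibody, read as the 665/620 nm HTRF ratio. Controls were no antibody (maximal) and cells alone (minimal). Screening used 1 nM antibody; IC₅₀ came from 11-point, 5-fold dilutions starting at 1500 nM.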
In general terms: Time-resolved FRET reads energy transfer from a long-lived donor to a nearby acceptor.

Assay [4] addresses T2, Human ROBO2 overexpressed on HEK293 …. Briefly: flow cytometry, Geo MFI ROBO2/ROBO1 HEK293 cells, 0.1 µg/ml. As to the method:
Binding of the antibodies was detected using a secondary fluorochrome conjugated anti-human IgG F(ab′)₂ antibody and samples were analyzed on a Fortessa cytometer (BD Biosciences). The fold ROBO2 selectivity was calculated as the geometric mean fluorescence intensity (Geo MFI) with ROBO2 cells/Geo MFI with ROBO1 cells. A fold change higher than 3 was considered to be ROBO2 specific (Table 2, Fold Selectivity). Some affinity matured clones had increased ROBO1 reactivity, for example Abcs 55, CTI-R2-10 and CTIR2-13.
HTRF assays were run with 5 nM d2-labeled SLIT2-N and antibodies were added at 1 nM. […] Antibodies derived from chain (Abcs series) or CDR shuffling (CTIR-2 series) were evaluated in 11-point, 5-fold dilution series with a top concentration of 1500 nM, N.T. = not tested; ^cFold selectivity was calculated as Geometric Mean Fluorescent Intensity (Geo MFI) of ROBO2/Geo MFI of ROBO1 binding. […] Outcomes: results are listed in order of assays listed in the table (left to right), I.A. = Improved Affinity

B1: Ab17 (antibody, human IgG1, kappa, V domains shown)
VH: EVQLVQSGAEVKKPGASVKVSCKASGYTFTGYDMHWVRQAPGQGLEWMGWINPNSGATNFPQKFQGRVTMTRDTSITTAYMDLSRLRSDDTAVYYCARESGDDAFDIWGQGTMVTVSS
VL: DIVMTQSPSSLSASVGDRVTITCRASQSISSYLNWYQQKPGKAPKLLIYAASSLQEGVPSRFSGSGSGTDFTLTISSLQPEDFATYYCQQSYSTSFGGGTKVEIKR
notes: full-length human IgG
Take B1: the “HTRF Ratio” value in assay [1] is 13500. Further, the binding result in assay [2] was “no binding (tested: 0.1 µg/ml)”.

B2: Ab123 (antibody, human IgG1, kappa, V domains shown)
VH: EVQLVQSGAEVKKPGASVKVSCKASGYTFTGYYMHWVRQAPGQGLEWMGWINPNSGATNFPQKFQGRVTMTRDTSITTAYMDLSRLRSDDTAVYYCARESGDDAFDIWGQGTMVTVSS
VL: DIVMTQSPSSLSASVGDRVTITCRASQSISSYLNWYQQKPGKAPKLLIYAASSLQSGVPSRFSGSGSGTDFTLTISSLQPEDFATYYCQQSVGLFFGGGTKVEIKR
notes: full-length human IgG
The molecule B2 came in with a Kd with Human ROBO2 Ig1-Ig2-His of 1.4 nM. Moreover, in assay [3], the IC50 was 0.26 nM. Moreover, in assay [4], the “Fold Selectivity for ROBO2/ROBO1” value is 80.5 fold. Further, the “HTRF Ratio” value in assay [1] turned out to be 7710.

B3: Ab96 (antibody, human IgG1, kappa, V domains shown)
VH: EVQLVQSGAEVKKPGASVKVSCKASGYTFTGYYMHWVRQAPGQGLEWMGWINPKNGDTEFPQKFQGRVTMTRDTSITTAYMDLSRLRSDDTAVYYCARESGDDAFDIWGQGTMVTVSS
VL: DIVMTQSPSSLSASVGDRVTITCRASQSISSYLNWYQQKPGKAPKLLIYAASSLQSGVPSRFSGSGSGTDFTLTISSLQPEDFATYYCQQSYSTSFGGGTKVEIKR
notes: full-length human IgG
The molecule B3 showed a Kd with Human ROBO2 Ig1-Ig2-His of 1.2 nM. In assay [3], the IC50 turned out to be 0.166 nM. Besides, the “Fold Selectivity for ROBO2/ROBO1” value in assay [4] amounted to 35 fold. The “HTRF Ratio” value in assay [1] came to 3680.

B4: Ab21 (antibody, human IgG1, kappa, V domains shown)
VH: EVQLVQSGAEVKKPGASVKVSCKASGYTFTGYDMHWVRQAPGQGLEWMGWINPNSGATNFPQKFQGRVTMTRDTSITTAYMDLSRLRSDDTAVYYCARESGDDAFDIWGQGTMVTVSS
VL: DIVMTQSPSSLSASVGDRVTITCRASQSISSYLNWYQQKPGKAPKLLIYAASSLQYGVPSRFSGSGSGTDFTLTISSLQPEDFATYYCQQSYSTSFGGGTKVEIKR
notes: full-length human IgG
As to B4, the “HTRF Ratio” value in assay [1] amounted to 13100. Besides, in assay [2], the binding result is “no binding (tested: 0.1 µg/ml)”.

One may read the Kd as the free concentration of one partner at which half of the binding sites on the other are occupied at equilibrium, for simple one-to-one binding. Read a low Kd as a tighter complex. The IC50 is the concentration that inhibits the measured activity by half. Low values mean greater potency in that assay, high ones weaker potency in that assay.

For the origin of these results see patent publication US20200157212A1 (Pfizer, published 2020).
